{
  "source": "patent US9682130B2",
  "about": "(priority 2015, dated 2017)",
  "key": {"[1]": {"system": "NFκB", "settings": "small in vitro study; cited from earlier work"}, "[2]": {"system": "Adenovirus serotype Ad5", "test": "Ad5/NZW rabbit ocular replication model, plaque assay of ocular samples", "assay_type": "in vivo", "settings": "for Ad5-positive ocular samples, percent, Day 1 / Ad5-positive ocular samples, percent, Day 3 / Ad5-positive ocular samples, percent, Day 4 / Ad5-positive ocular samples, percent, Day 5 / Ad5-positive ocular samples, percent, Day 7 / Ad5-positive ocular samples, percent, Day 11 / Ad5-positive ocular samples, percent, Day 14 / Ad5-positive ocular samples, percent, Total / Ad5-positive ocular samples/total eyes, Day 1 / Ad5-positive ocular samples/total eyes, Day 3 / Ad5-positive ocular samples/total eyes, Day 4 / Ad5-positive ocular samples/total eyes, Day 5 / Ad5-positive ocular samples/total eyes, Day 7 / Ad5-positive ocular samples/total eyes, Day 11 / Ad5-positive ocular samples/total eyes, Day 14 / Ad5-positive ocular samples/total eyes, Total: 8x daily 9 days", "experimental": "See, e.g., Romanowski, et al., The In Vitro and In Vivo Evaluation of ddC as a Topical Antiviral for Ocular Adenovirus Infections, Invest. Ophthalmol. Vis. Sci. 50: 5295-5299 (2009), which is hereby incorporated by reference in its entirety.\nTo conduct this in vivo assay, 25 NZW rabbit were anesthetized using the general anesthesia ketamine and xylazine and the topical anesthesia proparacaine. Each rabbit was then topically inoculated with 50 μL of Adenovirus serotype Ad5 (3×10^7 pfu/mL) in both eyes after corneal epithelial scarification (12 cross-hatched strokes of a 25 sterile needle). Eyes were closed and gently rubbed for 5 seconds to ensure contact of the virus on all ocular surfaces. […] All topical solutions (37 μL drops) were instilled with an electronic pipette (EDP; Rainin, Oakland, Calif.) set in the multi-dispense mode. Ocular swabbing to recover adenovirus from tear film and corneal and conjunctival surfaces, after topical anesthesia with proparacaine, was performed at least 1 hour after the final dose on days 0, 1, 3, 4, 5, 7, 9, 11, and 14 after inoculation. The ocular samples from each eye was placed individually into tubes containing 1 mL of medium and were frozen at −70° C. pending viral plaque assay.\nThe ocular samples were assayed for Ad5 titers by performing a plaque reduction assay. Samples were diluted 1:10 and these dilutions were inoculated onto duplicate wells of a 24 well multi-plate containing A549 monolayers. The virus was adsorbed for 3 hours at 37° C. in a 5% CO2-water vapor atmosphere without constant rocking. After adsorption, 1 mL of medium plus 0.5% methylcellulose was added to each well, and the plates were incubated at 37° C. in a 5% CO2-water vapor atmosphere. After 7 days, the cells were stained with 0.5% gentian violet, and the number of plaques counted using a dissecting microscope (25×). The viral titers were then calculated, and will be expressed as plaque-forming units per milliliter (PFU/mL). Data from the study were analyzed using analysis of variance (ANOVA) with Fisher's pair-wise comparisons and X^2 analyses using True Epistat and/or Minitab statistical software. Significance was established at the P≦0.05 confidence level."}, "[3]": {"system": "MA-104 cells", "test": "Toxicity in uninfected wells (CC50)", "settings": "for Yield Reduction Assay CC50: yield reduction columns"}, "[4]": {"system": "HIV-1", "settings": "final concentrations that are not cytotoxic; cited from earlier work"}, "[5]": {"system": "Human Adenovirus 8 (Ad8 strain 13306)", "test": "Neutral red lysosomal uptake assay, Adenovirus 8", "assay_type": "cell-based", "settings": "Adenovirus 8, MA-104 cells", "experimental": "To assess in vitro cytotoxicity, both a cytopathic effects of a virus (CPE) regression assay and a neutral red lysosomal uptake cell viability assay was performed essentially as described in, e.g., Repetto, et al., Neutral Red Uptake Assay for the Estimation of Cell Viability/Cytotoxicity, Nat. Protoc. 3: 1125-1131 (2008), the content of which is hereby incorporated by reference in its entirety. Ninety-six-well plates were seeded with MA-104 cells at 1×10^5 cells/mL and incubated overnight at 37° C. with 5% CO2. […] Each dilution was added to 5 wells of a 96-well plate with 80% to 100% confluent cells, and three wells of each dilution were then infected with one of the two test viruses. Two wells remained uninfected as controls for toxicity. Six wells per plate were set aside as uninfected, untreated cell controls, and six wells per plate were infected with no treatment as virus controls. […] Assay plates were incubated at 37° C. with 5% CO2. […] After CPE reduction assay was completed, a neutral red lysosomal uptake assay was conducted by filling each well with 0.011% (m/v) neutral red, a vital stain. The plates then were incubated for about 2 hours at 37° C. in the dark. […] The plates were then read on a spectrophotometer at 540 nm to quantify the neutral red taken up by the healthy cells. […]"}},
  "data": [
    {"molecule": "Ranpirnase (protein, UniProt P22069 1-104, looked up, amphibian ribonuclease originally isolated from oocytes and/or early embryos of Rana pipiens; pancreatic ribonuclease (RNase A) superfamily, about 12 kD) Protein P-30: QDWLTFQKKHITNTRDVDCDNIMSTNLFHCKDKNTFIYSRPEPVKAICKGIIASKNVLTTSEFYLSDCNVTSRPCKYKLKKSTNKFCVTCENQAPVHFVGVGSC", "values": [
      {"measurement": "Translocation of NFκB into the nucleus", "setting": "[1]", "value": "inhibits translocation of NFκB into the nucleus"},
      {"measurement": "Ad5-positive ocular samples, percent, Day 1", "setting": "[2]; 0.25 μM Ranpirnase (group 1C)", "value": 100, "unit": "%"},
      {"measurement": "Ad5-positive ocular samples, percent, Day 3", "setting": "[2]; 0.25 μM Ranpirnase (group 1C)", "value": 100, "unit": "%"},
      {"measurement": "Ad5-positive ocular samples, percent, Day 4", "setting": "[2]; 0.25 μM Ranpirnase (group 1C)", "value": 100, "unit": "%"},
      {"measurement": "Ad5-positive ocular samples, percent, Day 5", "setting": "[2]; 0.25 μM Ranpirnase (group 1C)", "value": 100, "unit": "%"},
      {"measurement": "Ad5-positive ocular samples, percent, Day 7", "setting": "[2]; 0.25 μM Ranpirnase (group 1C)", "value": 88, "unit": "%"},
      {"measurement": "Ad5-positive ocular samples, percent, Day 11", "setting": "[2]; 0.25 μM Ranpirnase (group 1C)", "value": 38, "unit": "%"},
      {"measurement": "Ad5-positive ocular samples, percent, Day 14", "setting": "[2]; 0.25 μM Ranpirnase (group 1C)", "value": 0, "unit": "%"},
      {"measurement": "Ad5-positive ocular samples, percent, Total", "setting": "[2]; 0.25 μM Ranpirnase (group 1C)", "value": 76.7, "unit": "%"},
      {"measurement": "Ad5-positive ocular samples/total eyes, Day 1", "setting": "[2]; 0.25 μM Ranpirnase (group 1C)", "value": "10/10"},
      {"measurement": "Ad5-positive ocular samples/total eyes, Day 3", "setting": "[2]; 0.25 μM Ranpirnase (group 1C)", "value": "10/10"},
      {"measurement": "Ad5-positive ocular samples/total eyes, Day 4", "setting": "[2]; 0.25 μM Ranpirnase (group 1C)", "value": "8/8"},
      {"measurement": "Ad5-positive ocular samples/total eyes, Day 5", "setting": "[2]; 0.25 μM Ranpirnase (group 1C)", "value": "8/8"},
      {"measurement": "Ad5-positive ocular samples/total eyes, Day 7", "setting": "[2]; 0.25 μM Ranpirnase (group 1C)", "value": "7/8"},
      {"measurement": "Ad5-positive ocular samples/total eyes, Day 11", "setting": "[2]; 0.25 μM Ranpirnase (group 1C)", "value": "3/8"},
      {"measurement": "Ad5-positive ocular samples/total eyes, Day 14", "setting": "[2]; 0.25 μM Ranpirnase (group 1C)", "value": "0/8"},
      {"measurement": "Ad5-positive ocular samples/total eyes, Total", "setting": "[2]; 0.25 μM Ranpirnase (group 1C)", "value": "46/60"},
      {"measurement": "Ad5-positive ocular samples, percent, Day 1", "setting": "[2]; 2.5 μM Ranpirnase (group 1B)", "value": 100, "unit": "%"},
      {"measurement": "Ad5-positive ocular samples, percent, Day 3", "setting": "[2]; 2.5 μM Ranpirnase (group 1B)", "value": 100, "unit": "%"},
      {"measurement": "Ad5-positive ocular samples, percent, Day 4", "setting": "[2]; 2.5 μM Ranpirnase (group 1B)", "value": 100, "unit": "%"},
      {"measurement": "Ad5-positive ocular samples, percent, Day 5", "setting": "[2]; 2.5 μM Ranpirnase (group 1B)", "value": 80, "unit": "%"},
      {"measurement": "Ad5-positive ocular samples, percent, Day 7", "setting": "[2]; 2.5 μM Ranpirnase (group 1B)", "value": 70, "unit": "%"},
      {"measurement": "Ad5-positive ocular samples, percent, Day 11", "setting": "[2]; 2.5 μM Ranpirnase (group 1B)", "value": 0, "unit": "%"},
      {"measurement": "Ad5-positive ocular samples, percent, Day 14", "setting": "[2]; 2.5 μM Ranpirnase (group 1B)", "value": 0, "unit": "%"},
      {"measurement": "Ad5-positive ocular samples, percent, Total", "setting": "[2]; 2.5 μM Ranpirnase (group 1B)", "value": 64.3, "unit": "%"},
      {"measurement": "Ad5-positive ocular samples/total eyes, Day 1", "setting": "[2]; 2.5 μM Ranpirnase (group 1B)", "value": "10/10"},
      {"measurement": "Ad5-positive ocular samples/total eyes, Day 3", "setting": "[2]; 2.5 μM Ranpirnase (group 1B)", "value": "10/10"},
      {"measurement": "Ad5-positive ocular samples/total eyes, Day 4", "setting": "[2]; 2.5 μM Ranpirnase (group 1B)", "value": "10/10"},
      {"measurement": "Ad5-positive ocular samples/total eyes, Day 5", "setting": "[2]; 2.5 μM Ranpirnase (group 1B)", "value": "8/10"},
      {"measurement": "Ad5-positive ocular samples/total eyes, Day 7", "setting": "[2]; 2.5 μM Ranpirnase (group 1B)", "value": "7/10"},
      {"measurement": "Ad5-positive ocular samples/total eyes, Day 11", "setting": "[2]; 2.5 μM Ranpirnase (group 1B)", "value": "0/10"},
      {"measurement": "Ad5-positive ocular samples/total eyes, Day 14", "setting": "[2]; 2.5 μM Ranpirnase (group 1B)", "value": "0/10"},
      {"measurement": "Ad5-positive ocular samples/total eyes, Total", "setting": "[2]; 2.5 μM Ranpirnase (group 1B)", "value": "45/70"},
      {"measurement": "Ad5-positive ocular samples, percent, Day 1", "setting": "[2]; 25 μM Ranpirnase (group 1A)", "value": 100, "unit": "%"},
      {"measurement": "Ad5-positive ocular samples, percent, Day 3", "setting": "[2]; 25 μM Ranpirnase (group 1A)", "value": 100, "unit": "%"},
      {"measurement": "Ad5-positive ocular samples, percent, Day 4", "setting": "[2]; 25 μM Ranpirnase (group 1A)", "value": 100, "unit": "%"},
      {"measurement": "Ad5-positive ocular samples, percent, Day 5", "setting": "[2]; 25 μM Ranpirnase (group 1A)", "value": 90, "unit": "%"},
      {"measurement": "Ad5-positive ocular samples, percent, Day 7", "setting": "[2]; 25 μM Ranpirnase (group 1A)", "value": 30, "unit": "%"},
      {"measurement": "Ad5-positive ocular samples, percent, Day 11", "setting": "[2]; 25 μM Ranpirnase (group 1A)", "value": 0, "unit": "%"},
      {"measurement": "Ad5-positive ocular samples, percent, Day 14", "setting": "[2]; 25 μM Ranpirnase (group 1A)", "value": 0, "unit": "%"},
      {"measurement": "Ad5-positive ocular samples, percent, Total", "setting": "[2]; 25 μM Ranpirnase (group 1A)", "value": 60, "unit": "%"},
      {"measurement": "Ad5-positive ocular samples/total eyes, Day 1", "setting": "[2]; 25 μM Ranpirnase (group 1A)", "value": "10/10"},
      {"measurement": "Ad5-positive ocular samples/total eyes, Day 3", "setting": "[2]; 25 μM Ranpirnase (group 1A)", "value": "10/10"},
      {"measurement": "Ad5-positive ocular samples/total eyes, Day 4", "setting": "[2]; 25 μM Ranpirnase (group 1A)", "value": "10/10"},
      {"measurement": "Ad5-positive ocular samples/total eyes, Day 5", "setting": "[2]; 25 μM Ranpirnase (group 1A)", "value": "9/10"},
      {"measurement": "Ad5-positive ocular samples/total eyes, Day 7", "setting": "[2]; 25 μM Ranpirnase (group 1A)", "value": "3/10"},
      {"measurement": "Ad5-positive ocular samples/total eyes, Day 11", "setting": "[2]; 25 μM Ranpirnase (group 1A)", "value": "0/10"},
      {"measurement": "Ad5-positive ocular samples/total eyes, Day 14", "setting": "[2]; 25 μM Ranpirnase (group 1A)", "value": "0/10"},
      {"measurement": "Ad5-positive ocular samples/total eyes, Total", "setting": "[2]; 25 μM Ranpirnase (group 1A)", "value": "42/70"},
      {"measurement": "Antiviral efficacy compared to the Saline (negative) control", "setting": "[2]; 25, 2.5 and 0.25 μM Ranpirnase, Ad5/NZW rabbit ocular model", "value": "dose dependent antiviral efficacy"},
      {"measurement": "Neutral Red Assay CC50", "setting": "[3]; Adenovirus 5 section", "value": 52, "unit": "µg/mL"},
      {"measurement": "Yield Reduction Assay CC50", "setting": "[3]; Adenovirus 5 section", "value": 52, "unit": "µg/mL"},
      {"measurement": "CPE Reduction Assay CC50", "setting": "[3]; Adenovirus 8 section, CPE scoring", "value": 59, "unit": "µg/mL"},
      {"measurement": "Neutral Red Assay CC50", "setting": "[3]; Adenovirus 8 section", "value": 44, "unit": "µg/mL"},
      {"measurement": "Yield Reduction Assay CC50", "setting": "[3]; Adenovirus 8 section", "value": 59, "unit": "µg/mL"},
      {"measurement": "Inhibition of replication of HIV-1", "setting": "[4]", "value": "up to 99.9%"},
      {"measurement": "Neutral Red Assay EC50", "setting": "[5]", "value": "<100", "unit": "µg/mL"}
    ]}
  ]
}
